According to patent US20250136703A1 (PHANES THERAPEUTICS, published 2025):

T1: recombinant human IL13Ra2 (ACROBiosystems; CAT #: IL2-H52H5) (human, UniProt Q14627 27-343)
T1 construct: Bought protein, coated on the ELISA plate; also called Interleukin-13 Receptor Subunit Alpha 2; immobilized recombinant IL13Ra2
T1 sequence (looked up): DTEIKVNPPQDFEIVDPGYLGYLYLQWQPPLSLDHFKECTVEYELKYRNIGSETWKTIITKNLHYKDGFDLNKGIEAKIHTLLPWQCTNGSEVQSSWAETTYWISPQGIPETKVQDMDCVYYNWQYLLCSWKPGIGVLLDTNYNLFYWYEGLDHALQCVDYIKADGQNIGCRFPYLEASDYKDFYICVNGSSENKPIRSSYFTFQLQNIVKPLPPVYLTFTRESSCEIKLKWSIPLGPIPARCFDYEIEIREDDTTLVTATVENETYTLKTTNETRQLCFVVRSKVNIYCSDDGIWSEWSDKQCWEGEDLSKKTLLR


How the values were obtained:
[1] = target: T1, recombinant human IL13Ra2 …; assay: ELISA, antigen coated on plate, anti-human IgG Fc-HRP detection
Excerpt: FIGS. 1A-1E show the binding of purified chimeric anti-IL13Ra2 mAbs (VH and VL regions of mouse mAb fused to the constant regions of human IgG1 heavy chain and kappa light chain, respectively) to immobilized recombinant IL13Ra2 in an ELISA assay. The antigen was human IL13Ra2 (ACROBiosystems; Newark, DE; CAT #: IL2-H52H5). L3A6-C refers to the chimeric version of L3A6, other antibodies following the same naming rule; Isotype control (IgG1) was included as a negative control antibody.
Purified chimeric mAbs were tested in an ELISA assay for their ability to bind to immobilized IL13Ra2. Recombinant human IL13Ra2 in Carbonate-Bicarbonate Buffer (Sigma; St. Louis, MO; Cat #: C3041-100CAP) was coated on a 96-well plate at room temperature for 1 hour. The plate is blocked by 5% BSA in TBST for 1 hour at room temperature. In each well of an individual plate, mAbs at various concentrations were incubated for 1 hour at room temperature. The plate was washed and the binding to IL13Ra2 was detected by a mouse anti-human IgG Fc antibody conjugated to horseradish peroxidase (Genescript; Piscataway, NJ; Cat #: A01854) with incubation for 1 hour at room temperature. Then after washing, the ELISA was developed using One-step Detection Solution (ThermoFisher Scientific; Waltham, MA; Cat #: 34028) and measured as the absorbance at 450 nm. […]

[2] = target: T1, recombinant human IL13Ra2 …; assay: ELISA, antigen coated on plate

Row | binding result [1] | binding result [2] | Binder
1 | binds | – | L3A6-C (chimeric version of L3A6) (antibody, V domains shown, Mouse VH and VL fused to the constant regions of human IgG1 heavy chain and kappa light chain) VH: QVQLQQPGAELVKPGAPVKLSCKASGYTFTNYWMNWVKQRPGRGLEWIGRIDPSDTETHYNQEVKDKATLTVDKSSSTAYIQLSSLTSEDSAVYYCARGYGTYYGMDYWGQGTSVTVSS VL: not shown
2 | – | binds | L3A6-H1L1 (humanized mAb constructed with L3A6-H1 heavy chain and L3A6-L1 light chain) (antibody, V domains shown, Humanized VH and VL fused to the constant regions of human IgG1 heavy chain and kappa light chain) VH: QVTLRESGPALVKPTQTLTLTCTASGYTFTNYWMNWVRQPPGKALEWIGRIDPSDTETHYNQEVKDRATLSVDKSKNQAVLTMTNMDPVDTATYYCARGYGTYYGMDYWGQGSLVTVSS VL: DIVLTQSPDSLSVSLGERATINCRASESVDNYGISFMNWFQQKPGQPPKLLIYAASNQGSGVPDRFSGSGSGTDFTLTISSLQAEDVAVYFCQQSKEVPWTFGGGTKVEIK
